# Literature values as cited in patent US20240100071A1, “COMBINATION THERAPY FOR PATIENTS HAVING ACUTE AND/OR PERSISTENT DYSPNEA” (S-Form Pharma, priority 2020, published 2024).
# Where two headings read alike, the source gives them in different places.
# Settings: human plasma 24° C., cited from earlier work; for Average ADM recovery (N = 5): 10 ng ADM/ml; for Average loss of immune reactivity: MR-ADM/CT-ADM sandwich immune assay
substance,measurement,setting,value
Human Adrenomedullin [hADM],Average ADM recovery (N = 5),0 h,100
same,Average ADM recovery (N = 5),2 h,99.2
same,Loss of immune reactivity %/h,2 h,0.4 %/h
same,Average ADM recovery (N = 5),4 h,96.4
same,Loss of immune reactivity %/h,4 h,0.8 %/h
same,Average ADM recovery (N = 5),8 h,88.2
same,Loss of immune reactivity %/h,8 h,1.5 %/h
same,Average loss of immune reactivity,,Average: 0.9%/h
same,Average loss of immune reactivity,listed as ADM,0.9 %/h
